The record followed here is IntAct's records for PubMed 27135603.

B1: TNF receptor-associated factor 3 (Homo sapiens), Q13114 (parent)
chain: MESSKKMDSPGALQTNPPLKLHTDRSAGTPVFVPEQGGYKEKFVKTVEDKYKCEKCHLVLCSPKQTECGHRFCESCMAALLSSSSPKCTACQESIVKDKVFKDNCCKREILALQIYCRNESRGCAEQLMLGHLLVHLKNDCHFEELPCVRPDCKEKVLRKDLRDHVEKACKYREATCSHCKSQVPMIALQKHEDTDCPCVVVSCPHKCSVQTLLRSELSAHLSECVNAPSTCSFKRYGCVFQGTNQQIKAHEASSAVQHVNLLKEWSNSLEKKVSLLQNESVEKNKSIQSLHNQICSFEIEIERQKEMLRNNESKILHLQRVIDSQAEKLKELDKEIRPFRQNWEEADSMKSSVESLQNRVTELESVDKSAGQVARNTGLLESQLSRHDQMLSVHDIRLADMDLRFQVLETASYNGVLIWKIRDYKRRKQEAVMGKTLSLYSQPFYTGYFGYKMCARVYLNGDGMGKGTHLSLFFVIMRGEYDALLPWPFKQKVTLMLMDQGSSRRHLGDAFKPDPNSSSFKKPTGEMNIASGCPVFVAQTVLENGTYIKDDTIFIKVIVDTSDLPDP
partner: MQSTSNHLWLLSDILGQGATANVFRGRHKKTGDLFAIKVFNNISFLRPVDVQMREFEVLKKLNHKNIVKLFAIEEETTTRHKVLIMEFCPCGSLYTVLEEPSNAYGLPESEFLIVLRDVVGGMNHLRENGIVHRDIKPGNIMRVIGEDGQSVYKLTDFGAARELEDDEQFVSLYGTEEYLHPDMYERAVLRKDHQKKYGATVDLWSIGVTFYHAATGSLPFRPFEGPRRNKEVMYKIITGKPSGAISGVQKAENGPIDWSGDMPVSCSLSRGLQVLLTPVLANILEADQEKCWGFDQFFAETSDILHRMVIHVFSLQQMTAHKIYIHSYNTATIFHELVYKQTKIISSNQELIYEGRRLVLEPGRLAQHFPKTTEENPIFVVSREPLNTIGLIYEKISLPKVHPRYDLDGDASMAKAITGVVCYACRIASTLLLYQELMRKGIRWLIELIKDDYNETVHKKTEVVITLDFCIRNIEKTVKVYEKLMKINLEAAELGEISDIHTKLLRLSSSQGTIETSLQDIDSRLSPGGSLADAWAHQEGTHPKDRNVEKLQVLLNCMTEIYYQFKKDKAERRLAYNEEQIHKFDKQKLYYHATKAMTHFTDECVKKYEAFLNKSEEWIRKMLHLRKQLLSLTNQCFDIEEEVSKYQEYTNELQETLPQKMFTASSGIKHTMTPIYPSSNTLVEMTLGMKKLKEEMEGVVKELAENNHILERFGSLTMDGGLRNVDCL
B2: Inducible T-cell costimulator (Homo sapiens), Q9Y6W8 (parent)
chain: MKSGLWYFFLFCLRIKVLTGEINGSANYEMFIFHNGGVQILCKYPDIVQQFKMQLLKGGQILCDLTKTKGSGNTVSIKSLKFCHSQLSNNSVSFFLYNLDHSHANYYFCNLSIFDPPPFKVTLTGGYLHIYESQLCCQLKFWLPIGCAAFVVVCILGCILICWLTKKKYSSSVHDPNGEYMFMRAVNTAKKSRLTDVTL
B3: TNF receptor-associated factor 2 (Homo sapiens), Q12933 (parent)
chain: MAAASVTPPGSLELLQPGFSKTLLGTKLEAKYLCSACRNVLRRPFQAQCGHRYCSFCLASILSSGPQNCAACVHEGIYEEGISILESSSAFPDNAARREVESLPAVCPSDGCTWKGTLKEYESCHEGRCPLMLTECPACKGLVRLGEKERHLEHECPERSLSCRHCRAPCCGADVKAHHEVCPKFPLTCDGCGKKKIPREKFQDHVKTCGKCRVPCRFHAIGCLETVEGEKQQEHEVQWLREHLAMLLSSVLEAKPLLGDQSHAGSELLQRCESLEKKTATFENIVCVLNREVERVAMTAEACSRQHRLDQDKIEALSSKVQQLERSIGLKDLAMADLEQKVLEMEASTYDGVFIWKISDFARKRQEAVAGRIPAIFSPAFYTSRYGYKMCLRIYLNGDGTGRGTHLSLFFVVMKGPNDALLRWPFNQKVTLMLLDQNNREHVIDAFRPDVTSSSFQRPVNDMNIASGCPLFCPVSKMEAKNSYVRDDAIFIKAIVDLTGL
partner: B1 partner
B4: Inducible T-cell costimulator (Homo sapiens), Q9Y6W8 (parent)
chain: B2 chain
partner: B1 partner

In one assay the parent is B1. The settings on record: with tbk1_human TBK1, Q9UHD2.
Regarding S518A;S519A;S520A;F521A;K522A;K523A;P524A;T525A;G526A;E527A, the “effect of a mutation on the interaction” value was “decreasing interaction strength”.

A further assay covers variants of B2. The settings on record: with p85a_human PIK3R1, P27986.
p85a_human PIK3R1, P27986, sequence (P27986 whole entry): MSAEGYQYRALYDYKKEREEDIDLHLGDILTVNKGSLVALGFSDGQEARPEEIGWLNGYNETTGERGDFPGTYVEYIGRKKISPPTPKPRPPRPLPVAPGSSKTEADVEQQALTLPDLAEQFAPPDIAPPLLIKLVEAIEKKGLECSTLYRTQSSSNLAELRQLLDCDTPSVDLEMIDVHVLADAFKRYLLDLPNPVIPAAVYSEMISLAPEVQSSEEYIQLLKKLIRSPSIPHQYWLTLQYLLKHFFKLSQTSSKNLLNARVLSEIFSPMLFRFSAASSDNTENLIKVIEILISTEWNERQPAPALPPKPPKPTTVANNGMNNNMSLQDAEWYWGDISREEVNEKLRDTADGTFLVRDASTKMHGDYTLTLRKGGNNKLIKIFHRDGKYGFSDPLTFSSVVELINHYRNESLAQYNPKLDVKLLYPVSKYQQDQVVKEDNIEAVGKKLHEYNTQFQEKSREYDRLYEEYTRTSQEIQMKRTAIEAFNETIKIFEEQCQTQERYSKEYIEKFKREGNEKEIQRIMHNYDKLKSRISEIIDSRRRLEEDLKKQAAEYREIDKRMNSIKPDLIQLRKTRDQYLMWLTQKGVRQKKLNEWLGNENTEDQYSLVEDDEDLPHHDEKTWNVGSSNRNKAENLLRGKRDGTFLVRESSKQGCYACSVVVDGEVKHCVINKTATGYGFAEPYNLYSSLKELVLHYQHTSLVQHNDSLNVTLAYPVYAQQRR
As for Y180F, the “effect of a mutation on the interaction” value is listed as “disrupting interaction strength”.

The variants in another assay derive from B2. The settings on record: with p85a_human PIK3R1, P27986. This is another data set of the same source.
Regarding S170A;S171A;S172A;V173A;H174A;D175A;P176A;N177A;G178A;E179A, the “effect of a mutation on the interaction” value is recorded as “with no effect”.

A further assay covers variants of B3. As to conditions: with tbk1_human TBK1, Q9UHD2.
In the case of S453A;S454A;S455A;F456A;Q457A;R458A;P459A;V460A;N461A;D462A, the “effect of a mutation on the interaction” value is “disrupting interaction strength”.

The next assay covers variants of B4. The settings on record: with tbk1_human TBK1, Q9UHD2.
With S170A;S171A;S172A;V173A;H174A;D175A;P176A;N177A;G178A;E179A, the “effect of a mutation on the interaction” value was “decreasing interaction strength”.

The next assay covers variants of B4. The settings on record: with tbk1_human TBK1, Q9UHD2. This is another data set of the same source.
Take Y180F: the “effect of a mutation on the interaction” value is given as “with no effect”.
